What was measured:
Test in all cases: HPLC malonyltransferase assay, Lineweaver-Burk
Format in all cases: biochemical, Glycine max
[1] = substrate: CC(C)(COP(=O)(O)OP(=O)(O)OC[C@H]1O[C@@H](n2cnc3c(N)ncnc32)[C@H](O)[C@@H]1OP(=O)(O)O)[C@@H](O)C(=O)NCCC(=O)NCCSC(=O)CC(=O)O; settings: 60 μM genistin as acceptor, 20 mM potassium phosphate pH 7.2, 30°C
Description: (§1) HPLC malonyltransferase assay, Lineweaver-Burk on GmIMaT3

[2] = substrate: COc1cc2c(=O)c(-c3ccc(O)cc3)coc2cc1O[C@@H]1O[C@H](CO)[C@@H](O)[C@H](O)[C@H]1O; settings: 40 μM malonyl-CoA, 20 mM potassium phosphate pH 7.2, 30°C
Description: as §1

[3] = substrate: O=c1c(-c2ccc(O)cc2)coc2cc(O[C@@H]3O[C@H](CO)[C@@H](O)[C@H](O)[C@H]3O)ccc12; settings: 40 μM malonyl-CoA, 20 mM potassium phosphate pH 7.2, 30°C
Description: as §1

[4] = substrate: O=c1c(-c2ccc(O)cc2)coc2cc(O[C@@H]3O[C@H](CO)[C@@H](O)[C@H](O)[C@H]3O)cc(O)c12; settings: 40 μM malonyl-CoA, 20 mM potassium phosphate pH 7.2, 30°C
Description: as §1

[5] = substrate: CC(C)(COP(=O)(O)OP(=O)(O)OC[C@H]1O[C@@H](n2cnc3c(N)ncnc32)[C@H](O)[C@@H]1OP(=O)(O)O)[C@@H](O)C(=O)NCCC(=O)NCCSC(=O)CC(=O)O; settings: 60 μM genistin as acceptor, 20 mM potassium phosphate pH 7.2, 30°C; remark: listed apart in the source
Description: (§2) HPLC malonyltransferase assay, Lineweaver-Burk on GmIMaT1

[6] = substrate: COc1cc2c(=O)c(-c3ccc(O)cc3)coc2cc1O[C@@H]1O[C@H](CO)[C@@H](O)[C@H](O)[C@H]1O; settings: 40 μM malonyl-CoA, 20 mM potassium phosphate pH 7.2, 30°C; remark: listed apart in the source
Description: as §2

[7] = substrate: O=c1c(-c2ccc(O)cc2)coc2cc(O[C@@H]3O[C@H](CO)[C@@H](O)[C@H](O)[C@H]3O)ccc12; settings: 40 μM malonyl-CoA, 20 mM potassium phosphate pH 7.2, 30°C; remark: listed apart in the source
Description: as §2

[8] = substrate: O=c1c(-c2ccc(O)cc2)coc2cc(O[C@@H]3O[C@H](CO)[C@@H](O)[C@H](O)[C@H]3O)cc(O)c12; settings: 40 μM malonyl-CoA, 20 mM potassium phosphate pH 7.2, 30°C; remark: listed apart in the source
Description: as §2

Protein | Km [1] | kcat/Km [1] | Km [2] | kcat/Km [2] | Km [3] | kcat/Km [3] | Km [4] | kcat/Km [4] | Km [5] | kcat/Km [5] | Km [6] | kcat/Km [6] | Km [7] | kcat/Km [7] | Km [8] | kcat/Km [8]
GmIMaT3 (Glycine max) (protein, full-length ORF (467 residues), His-tagged fusion (pDEST17), E. coli BL21 (DE3), nickel resin, partially purified; cDNA from soybean roots; allele with three amino acid differences from GmMT7 and GmIF7MaT) MAETPTLRIHEVCPISPPQETPSTTIPFTFFDVLWLRLPPVERLFFYSFPNPTTTSSFFDTTILPNLKHSLSLTLHHFPPLAGTITWPLHTPLPLIAYTPGNSIPFRIAESNADFNTLSSNLSEVNNHRRNLIPHLPTSHEEASVLALQLTHFPNQGYSIGITSHHAALDGKSSTLFMKSWAHICSYLNTSPEEPLLFSLPKHLTPSFDRSVIRDPLGIGEIYAKSWTSFGGATNDRSLNVWDTLGGNQTDLVKGLFELTPLDIKKLKKLAESKFVVGDNKKKVRVTSFTVTCAYLLSCAVKAEQPNCERVHFVFNVDCRARLDPPIPETYFGNCVVALLASAKREELLGEEAFFKSVIGISEELNGLEGDVLNGADKWIPKIQSVVSETPRLFSVAGSPRFEVYGIDFGWGRPEKVDVASVNKTGAFSLSESRDHSGGIQIGLALTKNQMEAFSRVFAQGLESLES | 25.59 ± 2.2 µM | 750000 ± 120000 M⁻¹ s⁻¹ | 12.94 ± 1.3 µM | 5.61e+06 ± 1.25e+06 M⁻¹ s⁻¹ | 30.12 ± 2.6 µM | 1.15e+06 ± 120000 M⁻¹ s⁻¹ | 26.67 ± 0.86 µM | 1.54e+06 ± 140000 M⁻¹ s⁻¹ |  |  |  |  |  |  |  | 
GmIMaT1 (Glycine max) (protein, full-length ORF (476 residues), His-tagged fusion (pDEST17), E. coli BL21 (DE3), nickel resin, partially purified; cDNA from soybean roots) MASHNIKIHDHLRVSPPSATEISLSLTFFDLFWLRFHPVERIFFYTLPTPHSNPSIFYSKLVPKLKTSLSRTLQHFPPLAGNVVWPDNTPNPTVQYTPGDSVSLVVAESEADFNHVLDNSPHKASELRCLVPHLDSSDSHASVVSFQITLFPNRGFSIGISTHHAVLDGKSSTIFIKAWASLCKTYNDDESSESSSPSLAPELKPFFDRTAIKDPSEIGLNFTVNWTEILTKFFPNENSDGRCLKLLPFPPRLEDHVRASFALTGADLEKLRKRVLSKWDIVDRGAESEPPRLSSFVLTCAYALACIAKAIHGVEKEKEKFAFAFTVDCRARLEPPIHDNYFGNCVWGHVVDAEPLDFIKEEAFAIVAKSIHSKIKMILDEGIFHGMESAFSRYESLGKDGVEIMGIAGSNRFGVYGTDFGWGKPAKVEIASVDRALTIGFAESKDGNDGVQVGLVLKKHVMDLFCTLFRQGMLDD |  |  |  |  |  |  |  |  | 18.30 ± 1.2 µM | 440000 ± 70000 M⁻¹ s⁻¹ | 13.11 ± 0.92 µM | 5.21e+06 ± 140000 M⁻¹ s⁻¹ | 36.28 ± 3.2 µM | 820000 ± 10000 M⁻¹ s⁻¹ | 23.04 ± 1.5 µM | 2.47e+06 ± 100000 M⁻¹ s⁻¹

From article PMC5433297, “Isoflavone Malonyltransferases GmIMaT1 and GmIMaT3 Differently Modify Isoflavone Glucosides in Soybean (Glycine max) under Various Stresses” (Frontiers in Plant Science, 2017)
